Here are results for one protein from paper PMC8156991, “The Profound Influence of Lipid Composition on the Catalysis of the Drug Target NADH Type II Oxidoreductase” (Membranes, 2021).

Substrate in this series: CC1=CC(=O)c2ccccc2C1=O
Kind of series: cells, lysate or membranes named. In kind it is biochemical, Caldalkalibacillus thermarum. The settings on record: 33% PG + 67% PE vesicles with 1% menaquinone-7 embedded as shuttle, co-substrate NADH, 20 mM MOPS, 30 mM Na2SO4, pH 7.4, 25 °C, lipid-dependent.

B1: CthNDH-2 (Caldalkalibacillus thermarum type II NADH:quinone oxidoreductase) (Caldalkalibacillus thermarum TA2.A1) (protein)
chain: MSKPSIVILGAGYGGIVAALGLQKRLNYNEADITLVNKNDYHYITTELHQPAAGTMHHDQARVGIKELIDEKKIKFVKDTVVAIDREQQKVTLQNGELHYDYLVVGLGSEPETFGIEGLREHAFSINSINSVRIIRQHIEYQFAKFAAEPERTDYLTIVVGGAGFTGIEFVGELADRMPELCAEYDVDPKLVRIINVEAAPTVLPGFDPALVNYAMDVLGGKGVEFKIGTPIKRCTPEGVVIEVDGEEEEIKAATVVWTGGVRGNSIVEKSGFETMRGRIKVDPYLRAPGHENIFIVGDCALIINEENNRPYPPTAQIAIQHGENVAANLAALIRGGSMTPFKPHIRGTVASLGRNDAIGIVGGRKVYGHAASWLKKLIDMRYLYLIGGLSLVLKKGRF
As usually defined, the Km is the substrate concentration at which the rate is half of its maximum. On to B1, for which the Km is 21.7 µM.
